# Test results: patent US20160122426A1 (DONG A SOCIO, published 2016)
# T1: mouse VEGF (mouse, UniProt Q00731-2 27-190)
# T1 construct: Bought recombinant protein; also called mVEGF-A; mouse VEGF-A
# T1 sequence (looked up): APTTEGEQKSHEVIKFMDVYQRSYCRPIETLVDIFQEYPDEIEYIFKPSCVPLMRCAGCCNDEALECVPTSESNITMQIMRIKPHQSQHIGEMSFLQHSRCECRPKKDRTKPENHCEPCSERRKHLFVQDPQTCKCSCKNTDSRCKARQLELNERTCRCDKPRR
# T2: human VEGF-B (human, UniProt P49765-2 22-188, limits assumed)
# T2 construct: also called hVEGF-B
# T2 sequence (looked up): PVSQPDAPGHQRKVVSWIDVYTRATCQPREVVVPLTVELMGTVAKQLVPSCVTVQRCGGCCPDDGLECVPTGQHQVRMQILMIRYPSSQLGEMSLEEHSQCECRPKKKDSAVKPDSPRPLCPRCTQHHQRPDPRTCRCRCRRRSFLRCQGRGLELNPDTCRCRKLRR
# T3: human placental growth factor (human, UniProt P49763-2 21-149, limits assumed)
# T3 construct: also called PlGF; PIGF
# T3 sequence (looked up): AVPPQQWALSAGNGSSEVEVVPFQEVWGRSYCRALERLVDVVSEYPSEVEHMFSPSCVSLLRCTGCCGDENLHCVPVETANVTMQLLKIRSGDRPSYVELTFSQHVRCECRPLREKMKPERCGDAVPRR
# T4: human VEGF-C (human, UniProt P49767 103-227, limits assumed)
# T4 construct: also called hVEGF-C
# T4 sequence (looked up): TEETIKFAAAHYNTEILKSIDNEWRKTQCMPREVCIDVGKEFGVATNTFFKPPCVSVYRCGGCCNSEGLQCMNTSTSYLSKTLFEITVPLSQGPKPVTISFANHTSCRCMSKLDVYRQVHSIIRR
# T5: human VEGF-D (human, UniProt O43915 93-201, limits assumed)
# T5 construct: also called hVEGF-D
# T5 sequence (looked up): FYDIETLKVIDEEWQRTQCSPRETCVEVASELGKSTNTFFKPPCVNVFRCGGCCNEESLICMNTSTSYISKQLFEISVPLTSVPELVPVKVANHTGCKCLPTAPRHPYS
# Key:
# human VEGF [1] = target: T6, human VEGF (human, UniProt P15692-4 27-191); assay: SPR (BIAcore X100), VEGF on CM5 chip, IgG injected, 1:1 Langmuir
# T6 construct: Bought recombinant protein; also called hVEGF; human VEGF-A
# Source text: Meanwhile, to measure the affinity, human VEGF and mouse VEGF were coupled to carboxymethylated dextran biosensor chips (CM5, GE) according to the manufacturer's instructions.
# The association and dissociation rates were expressed by the association and dissociation sensorgram, and calculated using a simple 1:1 Langmuir binding model (BIAcore X100 evaluation software, ver. 2.0).
# Target sequence in this assay (P15692 other isoform, or with tags, fused parts or gaps limits assumed): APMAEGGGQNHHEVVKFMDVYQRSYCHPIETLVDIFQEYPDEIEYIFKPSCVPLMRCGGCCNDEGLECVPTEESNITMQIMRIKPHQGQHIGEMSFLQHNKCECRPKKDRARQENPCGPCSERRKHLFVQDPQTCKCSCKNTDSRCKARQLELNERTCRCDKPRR
# human VEGF [2] = target: T6, human VEGF; assay: ELISA, human VEGF coated, anti-human Fc-HRP, absorbance 450 nm [c]
# Description: (§1) 1.5 ng of human VEGF diluted in 150 μL of buffer solution was placed in 96-well immune plate (Nunc, USA), and adsorbed at 4° C. overnight, followed by washing 3 times with a buffer solution containing 0.1% Tween 20. Then, they were reacted with a buffer solution including 1% bovine serum albumin (Sigma, USA) for 1 hr at room temperature, and washed 3 times. Then each well was treated with 150 μL of serially diluted antibody (1 ng/mL, 10 ng/mL, 30 ng/mL, 100 ng/mL, 1000 ng/mL and 3000 ng/mL) They were allowed to react for 1 hr at room temperature so that antigens may bind to antibodies, followed by washing 3 times with a buffer solution.
# (§2) Each well was treated at 150 μL per well with anti-human immunoglobulin Fc-HRP antibody (AbSerotec, USA) diluted 1:20000 and allowed to react for 1 hr at room temperature. After the reaction was completed, washing was performed 3 times with a buffer solution, followed by addition of 150 μL of TMB (Sigma, USA) and color development for 10 min. The reaction was terminated with 1N sulfuric acid solution, and absorbance was measured at 450 nm using a spectrophotometer (Molecular Device, USA).
# human VEGF [3] = target: T6, human VEGF; assay: ELISA, human VEGF coated, anti-human Fc-HRP, absorbance 450 nm [b]
# Description: as §1, §2
# human VEGF [4] = target: T6, human VEGF; assay: competition ELISA: human VEGF coated, 9 nM KDR ECD IgG-Fc (VEGFR2) added together with the antibody, bound receptor-Fc detected, absorbance 405 nm
# Description: 0.5 μg/ml of human VEGF was coated to 96-well ELISA plate and blocked with PBS solution containing 3% BSA and 0.05% Tween 20.
# mouse VEGF [5] = target: T1, mouse VEGF; assay: ELISA and BIAcore
# human VEGF [6] = target: T6, human VEGF; assay: ELISA and BIAcore
# mouse VEGF [7] = target: T1, mouse VEGF; assay: ELISA, mouse VEGF coated, anti-human Fc-HRP, absorbance 450 nm [a]
# human VEGF-B = target: T2, human VEGF-B; assay: ELISA, 0.2 ug/ml protein coated, anti-human IgG-Fab-HRP, absorbance 650 nm; antibody concentration not shown
# Description: (§3) 0.2 μg/ml each of the respective proteins (hVEGF-A, mVEGF-A, hVEGF-B, hVEGF-C, hVEGF-D and PlGF) (R&D systems) were coated to the wells of ELISA plate, respectively. After blocking them with PBS containing 3% BSA and 0.05% Tween 20 for 30 min at 37° C., antibody clone proteins of increasing concentrations were incubated at 37° C. for 2 hr. Then, the wells were washed with PBS containing 3% BSA and 0.05% Tween 20 for 3 times, and anti-human IgG-Fab-HRP conjugate (Jackson Immunoresearch, USA) was added thereto and incubated for 1 hr at room temperature. Then they were washed with PBS containing 3% BSA and 0.05% Tween 20 for 3 times, and developed using TMB, and absorbance was measured at 650 nm.
# [8] = target: T3, human placental growth factor; assay: as above
# Description: as §3
# human VEGF-C = target: T4, human VEGF-C; assay: as above
# Description: as §3
# human VEGF-D = target: T5, human VEGF-D; assay: as above
# Description: as §3
# human VEGF [9] = target: T6, human VEGF; assay: ELISA, human VEGF coated, absorbance 650 nm [g]
Kd (human VEGF [1]) [pM],koff (human VEGF [1]) [s⁻¹],kon (human VEGF [1]) [M⁻¹ s⁻¹],EC50 (read off the curve) (human VEGF [2]) [µg/mL],EC50 (read off the curve) (human VEGF [3]) [µg/mL],IC50 (read off the curve) (human VEGF [4]) [pM],fold affinity over mother clone F (mouse VEGF [5]) [times],fold affinity over mother clone F (human VEGF [6]) [times],EC50 (read off the curve) (mouse VEGF [7]) [µg/mL],binding result (human VEGF-B),binding result [8],binding result (human VEGF-C),binding result (human VEGF-D),EC50 (read off the curve) (human VEGF [9]) [pM],Binder
19,2.6e-05,1.3e+06,~0.02,~0.04,~5000,≥ 10,≥ 10,~0.06,no binding,no binding,no binding,no binding,–,"HF2-5 (antibody, V domains shown, also called HF-5) VH: EVQLVESGGGLVQPGGSLRLSCAASGFMIRSHGMQWVRQAPGKGLEYVAGISSDGSWARHSAAVEGRFTISRDDSKNTAYLQMNSLRAEDTAVYYCARDFSTGYGADSIDAWGQGTLVTVSS VL: DIQMTQSPSSLSASVGDRVTITCSGGSDSAYGYGWYQQKPGKAPKTLIYWDDKRPSGVPSRFSGSRSGTDFTLTISSLQPEDFATYYCGAWEYSGGVGIFGQGTKVEIK"
18,3.2e-05,1.7e+06,–,~0.04,~5000,≥ 10,≥ 10,~0.05,no binding,no binding,no binding,no binding,–,"HF2-9 (antibody, V domains shown, also called HF-9) VH: EVQLVESGGGLVQPGGSLRLSCAASMFRIRSHGMQWVRQAPGKGLEYVAGISSDGSWFRVAAAVEGRFTISRDDSKNTAYLQMNSLRAEDTAVYYCARDFSTGYGADSIDAWGQGTLVTVSS VL: DIQMTQSPSSLSASVGDRVTITCSGGSMEPLGYGWYQQKPGKAPKTLIYWDDKRPSGVPSRFSGSRSGTDFTLTISSLQPEDFATYYCGAWEYSGGVGIFGQGTKVEIK"
–,–,–,–,–,–,≥ 10,≥ 10,–,–,–,–,–,~300,"HF2-26 (antibody, V domains shown) VH: EVQLVESGGGLVQPGGSLRLSCAASRFNMRSHGMQWVRQAPGKGLEYVAGISSDGSWIRVQAAVEGRFTISRDDSKNTAYLQMNSLRAEDTAVYYCARDFSTGYGADSIDAWGQGTLVTVSS VL: DIQMTQSPSSLSASVGDRVTITCTAPADSAYGYGWYQQKPGKAPKTLIYWDDKRPSGVPSRFSGSRSGTDFTLTISSLQPEDFATYYCGAWEYSGGVGIFGQGTKVEIK"
4.7,6.8e-06,1.4e+06,–,~0.04,~5000,≥ 10,≥ 10,~0.05,no binding,no binding,no binding,no binding,–,"HF2-11 (antibody, V domains shown, also called HF-11; clone HF2-11) VH: EVQLVESGGGLVQPGGSLRLSCAASGFLIRSHGMQWVRQAPGKGLEYVAGISSDGSWVKVAAAVEGRFTISRDDSKNTAYLQMNSLRAEDTAVYYCARDFSTGYGADSIDAWGQGTLVTVSS VL: DIQMTQSPSSLSASVGDRVTITCSGGSSEPLGYGWYQQKPGKAPKTLIYWDDKRPSGVPSRFSGSRSGTDFTLTISSLQPEDFATYYCGAWEYSGGVGIFGQGTKVEIK"
–,–,–,–,–,–,≥ 10,≥ 10,–,–,–,–,–,~100,"HF2-19 (antibody, V domains shown) VH: EVQLVESGGGLVQPGGSLRLSCAASGFSTRSHGMQWVRQAPGKGLEYVAGISSDGSWKATAAAVEGRFTISRDDSKNTAYLQMNSLRAEDTAVYYCARDFSTGYGADSIDAWGQGTLVTVSS VL: DIQMTQSPSSLSASVGDRVTITCSGGSDSAYGYGWYQQKPGKAPKTLIYWDDKRPSGVPSRFSGSRSGTDFTLTISSLQPEDFATYYCGAWEYSGGVGIFGQGTKVEIK"
36,5.7e-05,1.5e+06,~0.02,–,–,≥ 10,≥ 10,–,–,–,–,–,–,"HF2-8 (antibody, V domains shown, also called HF-8) VH: EVQLVESGGGLVQPGGSLRLSCAASGFHIRSHGMQWVRQAPGKGLEYVAGISSDGSWLKLSAAVEGRFTISRDDSKNTAYLQMNSLRAEDTAVYYCARDFSTGYGADSIDAWGQGTLVTVSS VL: DIQMTQSPSSLSASVGDRVTITCSGGSTYSLGYGWYQQKPGKAPKTLIYWDDKRPSGVPSRFSGSRSGTDFTLTISSLQPEDFATYYCGAWEYSGGVGIFGQGTKVEIK"
1.9,3.1e-06,1.6e+06,~0.02,–,–,≥ 10,≥ 10,–,–,–,–,–,–,"HF2-4 (antibody, V domains shown, also called HF-4) VH: EVQLVESGGGLVQPGGSLRLSCAASGWSMRSHGMQWVRQAPGKGLEYVAGISSDGSWRRHSAAVEGRFTISRDDSKNTAYLQMNSLRAEDTAVYYCARDFSTGYGADSIDAWGQGTLVTVSS VL: DIQMTQSPSSLSASVGDRVTITCSGGSDSAYGYGWYQQKPGKAPKTLIYWDDKRPSGVPSRFSGSRSGTDFTLTISSLQPEDFATYYCGAWEYSGGVGIFGQGTKVEIK"
–,–,–,–,–,–,≥ 10,≥ 10,–,–,–,–,–,~200,"HF2-25 (antibody, V domains shown) VH: EVQLVESGGGLVQPGGSLRLSCAASYMEYRSHGMQWVRQAPGKGLEYVAGISSDGSWFRMNAAVEGRFTISRDDSKNTAYLQMNSLRAEDTAVYYCARDFSTGYGADSIDAWGQGTLVTVSS VL: DIQMTQSPSSLSASVGDRVTITCSGGSNFPMGYGWYQQKPGKAPKTLIYWDDKRPSGVPSRFSGSRSGTDFTLTISSLQPEDFATYYCGAWEYSGGVGIFGQGTKVEIK"
